The source of these data is patent US20210139892, “COMPOSITIONS AND METHODS FOR DELIVERY OF RNA TO A CELL” (The Regents of the University of California, published 2021).

Series [1] has as its target T1, U1A N-terminal RNA-binding domain (Y31H, Q36R; exact Cys variant used in BLI not stated) (Homo sapiens, UniProt P09012 SEQ:2-98).
T1 chain: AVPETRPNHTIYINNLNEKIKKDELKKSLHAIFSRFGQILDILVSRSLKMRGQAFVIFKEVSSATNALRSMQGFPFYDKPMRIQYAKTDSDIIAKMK
Nature of the series: BLI; biotin-Cas9 noSL RNP immobilised; 0.1-1 uM U1A; no substantial binding. The following applies: tags: none; N-terminal Met removed in E. coli; sgRNA scaffold, no U1A site. The source says: (§1) Biolayer interferometry (BLI) was used to assess the capacity of Cas9 RNPs containing sgRNA variants to bind U1A (or U1A-ppTG21 conjugates) as well as to assess the persistence of any binding events. These assays approximated the experimental design described in Richardson et al. (Nat Biotechnol. 2016 March; 34(3):339-44. doi: 10.1038/nbt.3481). These experiments relied on a Cas9 protein covalently, site-specifically labeled with a biotin moiety, allowing loading onto a BLI sensor bearing streptavidin. The instrument used was an Octet Red 384. The buffer used was 20 mM HEPES, pH 7.5, 100 mM KCl, 10% Glycerol, 0.01 mg/ml Heparin, 0.01% IGEPAL. The loading step of the experiment used Cas9 RNP at 20 nM in the wells. U1A wells contained 100 nM, 330 nM, or 1 μM U1A. […] In contrast to the noSL RNP experiment, the SLabub RNP was markedly bound by the U1A, and the binding persisted for the ˜2000 s (˜33 min) duration of the dissociation phase (FIG. 15A). The SLabub RNP experiment was repeated using U1A-ppTG21 conjugate in the wells at concentrations spanning 100 nM to 6 μM (FIG. 15B).
A general note: In BLI a coated tip is dipped into the sample, and binding shifts an interference pattern.

Series [2] has as its target T2, U1A-ppTG21 conjugate (U1A Cys variant disulfide-linked to ppTG21 endosomolytic peptide); number of ppTG21 not … (Homo sapiens, UniProt P09012 SEQ:2-98).
T2 chain: T1 chain with S70C
Nature of the series: BLI; biotin-RNA immobilised; 0.33-333 nM conjugate; not substantially bound. The note with it: label: 5' biotin; hairpin.
From the text: as §1
(§2) The concentrations of U1A-ppTG21 conjugate in the wells covered the range of 0.33-333 nM. Substantial binding was observed between the U1 stem loop and the U1A-ppTG21 conjugate, and this binding persisted for the ˜2000 s (˜33 min) of the dissociation phase (FIG. 15C).

Series [3] has as its target T2, U1A-ppTG21 conjugate (U1A Cys variant …). Kind of series: BLI; biotin-Cas9 RNP immobilised; 0.1-6 uM conjugate; binding persists ~900 s. The following applies: sgRNA with three U1A stem-loop hairpins.
From the text: as §1

Series [4] has as its target T1, U1A N-terminal RNA-binding domain …. Kind of series: BLI; biotin-Cas9 RNP immobilised; 0.1-1 uM U1A; binding persists ~2000 s; 20 mM HEPES pH 7.5, 100 mM KCl, 0.01 mg/ml heparin. The note with it: tags: none; N-terminal Met removed in E. coli; sgRNA with three U1A stem-loop hairpins.
From the text: as §1

Series [5] has as its target T2, U1A-ppTG21 conjugate (U1A Cys variant …). Nature of the series: BLI; biotin-RNA immobilised; 0.33-333 nM conjugate; binding persists ~2000 s. The note with it: label: 5' biotin; hairpin.
From the text: as §1, §2

Changes are numbered by the printed parent chain.

B1: noSL sgRNA (EMX1) (ssRNA)
RNA: GUCACCUCCAAUGACUAGGGGUUUAAGAGCUAUGCUGGAAACAGCAUAGCAAGUUUAAAUAAGGCUAGUCCGUUAUCAACUUGAAAAAGUGGCACCGAGUCGGUGCUUUUUUU
In the case of B1, the binding result in series [1] is “no binding”. With AAUCCAUUCAUGUACCGGAUU (ssRNA) [U2 RNA stem loop negative control], the binding result in series [2] is listed as “no binding”.

B2: SLabub sgRNA (EMX1) (ssRNA)
RNA: GUCACCUCCAAUGACUAGGGGUUUAAGAGCUAUGGAUCAUUGCACUCCGAUCCAUAGCAAGUUUAAAUAAGGCUAGUCCGUUAUCAACUUGUCGAGGCUAAGUCGCAUUGCACUCCGCGACAGCACAAGCCCGCUGCCAUUGCACUCCGGCAGCAGGGAACUCGUCAAGUGGCACCGAGUCGGUGCUUUUUUU
Regarding B2, the binding result in series [3] and in series [4] was “binds” in each case. As to AAUCCAUUGCACUCCGGAUU (ssRNA) [U1 RNA stem loop 2], the binding result in series [5] is “binds”.
